test: soluble on expression in E. coli; label from the status in PepcDB or PDB records

Row | Sequence | soluble on expression in E. coli
1 | MGSDKIHHHHHHMESHVNILKSDVKIDPSRSPFMKERVEVMYEGDDLESILEQVKEIELGEMTFKVIFVKINDLEGENKIEYAERRIIERRIGDCIDAEADVRNPERTFGIVPLGGRWYFGHYVESKPVWYHHIKKPRSYSTSLSTRVARSVANIAVPNPEGVRAIDPCCGIGTVVVEALSMGINIVGRDISPLVAIGARENIAHFGFDGTITKGPIEEITENYDVAIIDMPYDLFTHATPENQLSILSSARRIAKKVVVVTMETMDDMIHEAGFEIIDRCTTKKGTFSRQILVCE | not soluble
2 | MGSDKIHHHHHHMEVLSGECRSASSVASAGGGHAESWARYASMDRKGESSMAAQQPTILATSGGYKAGRRSRLEFDALLHHAVELSGVTGRAPRVTHIGTAAGDQRSFNAELDQAAKIAGFDFSHLNLFTMPSIDDPEAHLLEQDVVWVNGGSVVNLLAVWRAHGLDGILRRVWEAGVVLAGVSAGSICWFQGGTTDSYGPQLRPVTNALGFLPYANGVHYDSEVQRRPLVHRLVADGTLGETHCTDDGAGLVYFGTHLAEAVTEVRGKAAYRVTRHIQGGGAATAAEERLEARFLG | not soluble
3 | MGSDKIHHHHHHMFAGAPLSMLLAMPHRPYRDEADLTLLLRWLSDHAPTTFMHPGDLVWWLYQNTQVDPRQALELLFDGEAGGNELQGFGYCDGSWSVLQGLPDLPAHVWDEMVAAAATRAGGKLTVQPHEWDTPQLAALKRAGFELTDNRMVRLVREVQPCDQEAVALPAGFHFADMSGSEVSPEDRVKVHQDVWHPSKVTLEAYGRLQAAPLYRPDLDVMVVAPSGEIAAYALGWFDPGSRTGLMEPVGTRAAFRRQGLGKGLIREVTHRFAALGAQKVTIGSYEKNVAAVALYTSAGYAARGFWVDWETETAAMKEGQDSA | not soluble
4 | MGSDKIHHHHHHMFISDLHIGDGSAKDDFFFDKELVNFIEDMSQTEDVELFVVGDGFEILESRTVKEIGLVSFEEVVETLDETVIDEIEKKHSEVFETLKKFSRRHRVYYVVGNHDYHILKNKKLQNALKNRFEKFEILPYYYDPHSKLLVLHGNQFDVINRFTVDRKTKKVIPPLGDYIARYMMINFDSQVVNFAPEDVIRDYDNVRPLLDVFHWFDYVTEIYDLSVDLVELWLKSFLSMLKTREARKWMKNNFPRTHWLSKVFVNRFGGVELGKVLVRSIYTLRKLRRVDYLQKWAKSILKGNLRWKEFMTGYSGDLHEVEEVDILVMGHVHHFAYRIVPTTQGKKLYVNCGSWRPVLEKLGIRKRHGFHRKAELPKIIMDFSGKNVEVKASITNVLGKIQGGDL | not soluble
5 | MGSDKIHHHHHHMFQPLLDAFIESASIEKMVSKSPPPPLKIAVANWWGDEEIKEFKKSVLYFILSQRYAITLHQNPNESSDLVFSNPLGAARKILSYQNTKRVFYTGENESPNFNLFDYAIGFDELDFNDRYLRMPLYYAHLHYEAELVNDTTAPYKLKDNSLYALKKPSHHFKENHPNLCAVVNDESDLLKRGFASFVASNANAPMRNAFYDALNSIEPVTGGGSVRNTLGYKVGNKSEFLSQYKFNLCFENSQGYGYVTEKILDAYFSHTIPIYWGSPSVAKDFNPKSFVNVHDFNNFDEAIDYIKYLHTHPNAYLDMLYENPLNTLDGKAYFYQDLSFKKILDFFKTILENDTIYHNNPFIFYRDLHEPLISIDDLRVNYDDLRVNYDDLRVNYDDLRVNYDDLRVNYDDLRVNYDDLRVNYDDLRVNYDDLRVNYDDLRVNYDRLLQNASPLLELSQNTTFKIYRKAYQKSLPLLRTIRRWVKK | not soluble
6 | MGSDKIHHHHHHMFVLKNVKYKDILNIEELHIPARKITVITGKSGTGKTTLLKMLNKLISPDSGEIFFKGTPLTEIDSVELRRKVVMLPQFPVVFPGNVKENLLMGLKFSGKKIPHDEELRKILKFVMLEKDLNDDPEKFSGGEKQRLALARVLLMDPEVLLLDEPTSSLDEKTGIEIIKKVSNFAKSRGKTLVMVTHNPELRKFADVLIELKNGRVL | not soluble
7 | MGSDKIHHHHHHMGACENRWTVAKALRFPGDALQTILVAAPRGDLSTFFSIECTKRVHTGRCVTTANALKVQAFHTTDVTEQVRATPGWQQQYRQMSPGYFSGELRCLGLDGVEVYEERLNTRVEQFFRAPSGSLAFCFDRSENSLYLLNEQSRNIWITPENYQEVAVVFDQAFLARHGLDPQRLEGLFMVPLGSGQNALFGSWLSATLTRLGEEGCPLQGQALAEQLLEDCLFILDNASQRLQGVALGRRDEERAIMHRVSEWAADCPEETLNLLELADVAGVSLRQLQQAFKAFTGMPPAHWLRLRRLNGARRDLLRGGGVTVAEVAMRWSFWHLGRFSESYRQLFKEFPSETLKRCRV | not soluble
8 | MGSDKIHHHHHHMGFIEVQQQFMDYIRDPSLPLPEGIEPRRMKIYRELFFNNIAGFVSSAFPVLKSVYEDDQWQALVQQFFVSHDCKTPIFVEIAGEFLAFLQHEYQMTEDDPVFMLQLAHYEWLELCVAVAPDTPAAQSINTIELNLHRLCLAACAKVAQYAFDVQHISVDYQPIEPTAQANFFCVFRGADDEVAFLQLTPLSAQVLAYIEQMTHSQQGVTVDAIISWLSEHYPQMPNDTLLSGCLPLLQQLAQKGIVISSIES | not soluble
9 | MGSDKIHHHHHHMGIRNSKTFTSTDIATYYDVSEDHYMYFWDLNQSHSLHYGYWDASTKTFREALANINRVLAEKASITAGTRVLDAGCGVGGSSIWLAKNKQANVTGITVSKKQAARANTSAAAVNPGGTAVFDVQDYTNTPYHSESFDVVWAIESVCHAANKEDFIKEAYRLLKPGGQLIMADFFIVKDGNADDQRSIDAWGHGWAVPFFEKKDAFQHMLLKAGFNTADMIDSTEHIRRSAKRLYYAFFPGWIISKLYNLVNRRTTEFSKNNVYTAYYQYKTLKKELWKYYIVHAKK | not soluble
10 | MGSDKIHHHHHHMGMDFKVPDYMQELALASGQGLDQLSAVLARILDHPVLISSSAYKLFSSSSHYDFESFHIYSNQPRTGSDALFTCHILTDTMQSLALGRVVAPFGRTLGYIFMLTDDDSPDPTHFKPLLDYAASLCAVHLQNRLELKQEQSKFKNAFLYDLIYGNLKRNDEIIATGELWGWNFRRPHTIMVFLLPEPDFYTTEWHLMDVLSRIVEQNFIEIYYKNPAVILRQNELILFVPMQTDKPAVQTEELLVFADKILSQVQNTELKGLAACGVGQAYSEATVLFRSYQEAKVALEMGKLLGIPIPFFRDLGLERILYKHDLQDLKEYYLHVLGELHKQDDQDSSLVTILESFAENQFDVGKTAKALFMHPNTLRYRLNKIENILGKPLTDNHARLDIMAAFKIKRLHTIETLLA | not soluble
11 | MGSDKIHHHHHHMGNTQWQRLLQIEIHDKNGKNRVLLRADSGRLDRLEIHFTAPFSDSPNPSEVSVTIYNLNKKSIDFIKKGNPVYIHAGYAGTSNGVITSGTIAEVKPSVLNGVDRATTFTFLEGKDYSEQKEVNITFNNGTDAHTIINRVAREANIPLSEIKLKNNKIYGSGYTADGQAMMVLEEISKACDTSLYFKRGQLVIKNFRDGNKERYRLSPETGLINQPTKVESHDYTGWSVECLLQHKITTGTAVYIDSKNVKGNFYVKNGQHSYDGSRFVTTCEVVT | not soluble
12 | MGSDKIHHHHHHMGNVASSEVINQLEAWYQAIKRLQLAEATTIKHEVMQAIDGMDQDRKVFLYYHLIDSRYHLLIHQWDYAGAILKGLKAQVELKETDKLLRYYYYFFSGLYEFHTKQYIEAIHFYRLAESLLKDIPDDIEQAEFNYQLAVAYYEIDQHFVSMDHAEKALELYLQNDQYKNRVATTQMIVAANQLDLYQFASAEALYKNAIELASDVQDFFVKGMGYYNLGVCYDRQDKLDLARECFESALYVDLPKSQYQGVMVGTKYMLARVLFKQGILEEGMHWFEEAKALADEMKDASYQAKLSTIHSIYKERDEVEIDDGLRVLKEGKLWSDVFELAINAARHFQEKEDYSLAAKYFDEGLVAKDQIKAWKEDTAST | not soluble
13 | MGSDKIHHHHHHMGPVGYTTLDTAVVERRLGVERLGYRVVGEGYVYRHKYKAGGQRVSTLIGRPEPLDPARVLRVLSAGAYNVVLISPLHGEDDGGLASYIHNNFSAITAVDLQGYYRGYASVWTPPTARIGSLAHISSDDASDPPREPMANIIVYTRGEAGGEVLSPSGSLTIPPPPKLVEDPTGAGDIFTMVFAIMLFRGAPPGPAAEEAAAKTPEILESIRGDEGFQYSVPHSPSEAFWI | not soluble
